Patent US20140072613A1 (published 2014)

Assays:
Assay in all cases: cell-based or functional assay
PDGFRα(h) = PDGFRα(h) (human, UniProt P16234 550-1089, limits assumed)
EphA2(h) = molecular target: T1, EphA2(h) (human, UniProt P29317 559-976, limits assumed)
T1 sequence (looked up): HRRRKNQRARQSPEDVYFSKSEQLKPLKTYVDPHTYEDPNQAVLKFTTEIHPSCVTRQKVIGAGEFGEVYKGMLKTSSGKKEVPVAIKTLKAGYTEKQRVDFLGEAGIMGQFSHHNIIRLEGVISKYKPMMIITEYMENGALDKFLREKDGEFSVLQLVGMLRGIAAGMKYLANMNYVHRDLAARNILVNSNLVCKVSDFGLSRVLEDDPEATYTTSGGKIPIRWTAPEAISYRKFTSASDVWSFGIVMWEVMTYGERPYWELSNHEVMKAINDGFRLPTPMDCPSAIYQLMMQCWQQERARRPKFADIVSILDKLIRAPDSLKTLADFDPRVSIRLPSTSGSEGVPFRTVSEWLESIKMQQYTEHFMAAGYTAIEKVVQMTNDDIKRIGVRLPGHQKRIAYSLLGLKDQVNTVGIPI

TSSK2(h) = molecular target: T2, TSSK2(h) (human, UniProt Q96PF2 1-358)
T2 sequence (looked up): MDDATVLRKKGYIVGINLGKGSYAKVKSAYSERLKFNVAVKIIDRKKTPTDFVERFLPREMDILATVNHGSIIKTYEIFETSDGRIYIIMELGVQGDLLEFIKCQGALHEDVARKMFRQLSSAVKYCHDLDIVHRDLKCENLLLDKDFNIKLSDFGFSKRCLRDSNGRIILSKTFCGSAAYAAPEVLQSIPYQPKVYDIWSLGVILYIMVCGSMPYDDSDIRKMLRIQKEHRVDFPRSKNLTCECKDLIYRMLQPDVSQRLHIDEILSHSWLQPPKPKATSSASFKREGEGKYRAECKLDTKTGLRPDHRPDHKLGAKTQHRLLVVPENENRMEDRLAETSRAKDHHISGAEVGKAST

TSSK1(h) = molecular target: T3, TSSK1(h) (human, UniProt Q9BXA7 1-367)
T3 sequence (looked up): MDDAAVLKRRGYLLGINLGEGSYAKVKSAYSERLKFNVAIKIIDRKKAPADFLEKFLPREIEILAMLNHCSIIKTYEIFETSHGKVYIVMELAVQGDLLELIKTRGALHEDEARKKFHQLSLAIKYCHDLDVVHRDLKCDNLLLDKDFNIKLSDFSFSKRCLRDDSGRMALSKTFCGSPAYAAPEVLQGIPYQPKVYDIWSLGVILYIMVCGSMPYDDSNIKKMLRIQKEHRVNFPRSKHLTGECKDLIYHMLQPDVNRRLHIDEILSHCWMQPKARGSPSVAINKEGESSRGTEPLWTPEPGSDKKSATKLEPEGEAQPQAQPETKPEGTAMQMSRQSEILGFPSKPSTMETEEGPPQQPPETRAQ

NEK2(h) = molecular target: T4, NEK2(h) (human, UniProt P51955 1-445)
T4 sequence (looked up): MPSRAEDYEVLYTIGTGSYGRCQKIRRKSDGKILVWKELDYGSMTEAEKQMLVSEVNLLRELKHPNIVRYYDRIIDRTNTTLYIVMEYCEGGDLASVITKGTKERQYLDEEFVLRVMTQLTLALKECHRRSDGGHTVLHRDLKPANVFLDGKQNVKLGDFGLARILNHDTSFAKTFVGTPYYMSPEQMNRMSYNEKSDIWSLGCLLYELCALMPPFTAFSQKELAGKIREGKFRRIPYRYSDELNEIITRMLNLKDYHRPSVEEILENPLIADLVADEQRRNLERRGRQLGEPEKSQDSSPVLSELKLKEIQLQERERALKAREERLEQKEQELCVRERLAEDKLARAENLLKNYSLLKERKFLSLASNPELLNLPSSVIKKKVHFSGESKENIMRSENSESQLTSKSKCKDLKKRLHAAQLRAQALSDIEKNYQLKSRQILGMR

CLK2(h) = CLK2(h) (human, UniProt P49760 1-499, limits assumed)
CLK2(h), sequence (P49760 whole entry): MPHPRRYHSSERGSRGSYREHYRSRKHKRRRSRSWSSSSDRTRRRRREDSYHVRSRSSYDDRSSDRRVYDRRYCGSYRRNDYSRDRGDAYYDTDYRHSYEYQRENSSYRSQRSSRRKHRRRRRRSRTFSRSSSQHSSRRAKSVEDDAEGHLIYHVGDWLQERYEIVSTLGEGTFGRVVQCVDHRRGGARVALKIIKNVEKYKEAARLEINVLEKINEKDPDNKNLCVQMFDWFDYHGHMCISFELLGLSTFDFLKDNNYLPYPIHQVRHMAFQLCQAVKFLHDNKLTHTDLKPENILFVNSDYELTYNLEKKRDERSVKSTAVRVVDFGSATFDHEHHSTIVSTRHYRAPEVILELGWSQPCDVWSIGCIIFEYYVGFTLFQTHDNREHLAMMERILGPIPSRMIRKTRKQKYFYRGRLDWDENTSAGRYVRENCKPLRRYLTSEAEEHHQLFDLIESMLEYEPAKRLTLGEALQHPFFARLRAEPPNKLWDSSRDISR

MST2(h) = molecular target: T5, MST2(h) (human, UniProt Q13188 1-491)
T5 sequence (looked up): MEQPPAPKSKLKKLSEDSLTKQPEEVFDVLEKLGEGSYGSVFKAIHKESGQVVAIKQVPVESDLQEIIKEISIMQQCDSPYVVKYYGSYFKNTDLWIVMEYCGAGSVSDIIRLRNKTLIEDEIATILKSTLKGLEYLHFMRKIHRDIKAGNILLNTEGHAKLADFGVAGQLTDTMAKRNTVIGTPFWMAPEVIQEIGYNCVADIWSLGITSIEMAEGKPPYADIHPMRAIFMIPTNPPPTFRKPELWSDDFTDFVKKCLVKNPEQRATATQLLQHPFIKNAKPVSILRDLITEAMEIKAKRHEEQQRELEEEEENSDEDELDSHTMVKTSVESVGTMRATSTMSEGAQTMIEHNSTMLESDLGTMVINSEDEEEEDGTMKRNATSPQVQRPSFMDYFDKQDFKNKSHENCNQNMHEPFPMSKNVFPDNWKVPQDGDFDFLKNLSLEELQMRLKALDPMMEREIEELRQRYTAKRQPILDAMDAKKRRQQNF

Syk(h) = Syk(h) (human, UniProt P43405 1-635)
MINK(h) = MINK(h) (human, UniProt Q8N4C8 1-320, limits assumed)
MINK(h), sequence (Q8N4C8 1-320 limits assumed): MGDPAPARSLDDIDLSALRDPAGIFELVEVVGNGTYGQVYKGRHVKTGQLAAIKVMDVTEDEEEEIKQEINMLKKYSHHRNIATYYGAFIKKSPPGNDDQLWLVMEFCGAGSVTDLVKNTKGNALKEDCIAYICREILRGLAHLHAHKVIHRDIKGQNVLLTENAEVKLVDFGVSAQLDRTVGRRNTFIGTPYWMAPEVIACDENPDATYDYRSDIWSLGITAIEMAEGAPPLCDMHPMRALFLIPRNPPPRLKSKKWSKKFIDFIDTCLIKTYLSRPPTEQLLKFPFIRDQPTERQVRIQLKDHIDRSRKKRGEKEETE

MKK7β(h) = molecular target: T6, MKK7β(h) (human, UniProt O14733 1-419, limits assumed)
T6 sequence (looked up): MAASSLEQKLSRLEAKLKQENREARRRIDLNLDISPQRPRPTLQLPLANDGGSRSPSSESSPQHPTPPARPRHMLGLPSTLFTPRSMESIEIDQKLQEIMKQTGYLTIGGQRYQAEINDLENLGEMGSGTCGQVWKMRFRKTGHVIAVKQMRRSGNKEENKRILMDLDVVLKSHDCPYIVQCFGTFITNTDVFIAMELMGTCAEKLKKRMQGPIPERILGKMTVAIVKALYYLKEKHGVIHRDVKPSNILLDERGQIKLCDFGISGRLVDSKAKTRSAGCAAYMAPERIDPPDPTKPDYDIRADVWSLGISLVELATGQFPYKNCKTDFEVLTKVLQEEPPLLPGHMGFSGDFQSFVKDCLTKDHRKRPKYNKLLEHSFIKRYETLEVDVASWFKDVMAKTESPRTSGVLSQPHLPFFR

PDGFRα(h), sequence (P16234 550-1089 limits assumed): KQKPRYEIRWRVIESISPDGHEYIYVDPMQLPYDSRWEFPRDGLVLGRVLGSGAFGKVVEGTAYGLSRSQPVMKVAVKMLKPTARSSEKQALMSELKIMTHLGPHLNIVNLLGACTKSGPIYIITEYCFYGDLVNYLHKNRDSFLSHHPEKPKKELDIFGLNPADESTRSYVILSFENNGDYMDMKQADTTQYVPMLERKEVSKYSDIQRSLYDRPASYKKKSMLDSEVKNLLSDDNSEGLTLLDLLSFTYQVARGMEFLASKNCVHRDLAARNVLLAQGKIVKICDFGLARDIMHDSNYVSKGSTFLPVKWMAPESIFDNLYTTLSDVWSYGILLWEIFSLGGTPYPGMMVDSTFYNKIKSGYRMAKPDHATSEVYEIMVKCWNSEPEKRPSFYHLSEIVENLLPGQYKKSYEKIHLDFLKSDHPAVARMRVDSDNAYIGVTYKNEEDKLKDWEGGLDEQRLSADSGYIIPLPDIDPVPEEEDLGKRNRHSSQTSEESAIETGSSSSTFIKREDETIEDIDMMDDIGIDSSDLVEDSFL

Binder | % activity, 100 µM (PDGFRα(h)) | % activity, 100 µM (EphA2(h)) | % activity, 100 µM (TSSK2(h)) | % activity, 100 µM (TSSK1(h)) | % activity, 100 µM (NEK2(h)) | % activity, 100 µM (CLK2(h)) | % activity, 100 µM (MST2(h)) | % activity, 100 µM (Syk(h)) | % activity, 100 µM (MINK(h)) | % activity, 100 µM (MKK7β(h))
FAKLAARLYRKALARQLGVAA [MMI-0300] | 65% | 31% | 98% | 79% | 78% | 103% | 19% | 24% | 48% | 100%
KAFAKLAARLYRKALARQLGVAA [MMI-0400] | 40% | 17% | 94% | 79% | 61% | 116% | 11% | 9% | 52% | 94%
